{"source": "paper PMC9156947", "key": {"C10-DDB1": {"biological_target": "C10-DDB1 (UniProt Q16531)", "sequence (Q16531 whole entry)": "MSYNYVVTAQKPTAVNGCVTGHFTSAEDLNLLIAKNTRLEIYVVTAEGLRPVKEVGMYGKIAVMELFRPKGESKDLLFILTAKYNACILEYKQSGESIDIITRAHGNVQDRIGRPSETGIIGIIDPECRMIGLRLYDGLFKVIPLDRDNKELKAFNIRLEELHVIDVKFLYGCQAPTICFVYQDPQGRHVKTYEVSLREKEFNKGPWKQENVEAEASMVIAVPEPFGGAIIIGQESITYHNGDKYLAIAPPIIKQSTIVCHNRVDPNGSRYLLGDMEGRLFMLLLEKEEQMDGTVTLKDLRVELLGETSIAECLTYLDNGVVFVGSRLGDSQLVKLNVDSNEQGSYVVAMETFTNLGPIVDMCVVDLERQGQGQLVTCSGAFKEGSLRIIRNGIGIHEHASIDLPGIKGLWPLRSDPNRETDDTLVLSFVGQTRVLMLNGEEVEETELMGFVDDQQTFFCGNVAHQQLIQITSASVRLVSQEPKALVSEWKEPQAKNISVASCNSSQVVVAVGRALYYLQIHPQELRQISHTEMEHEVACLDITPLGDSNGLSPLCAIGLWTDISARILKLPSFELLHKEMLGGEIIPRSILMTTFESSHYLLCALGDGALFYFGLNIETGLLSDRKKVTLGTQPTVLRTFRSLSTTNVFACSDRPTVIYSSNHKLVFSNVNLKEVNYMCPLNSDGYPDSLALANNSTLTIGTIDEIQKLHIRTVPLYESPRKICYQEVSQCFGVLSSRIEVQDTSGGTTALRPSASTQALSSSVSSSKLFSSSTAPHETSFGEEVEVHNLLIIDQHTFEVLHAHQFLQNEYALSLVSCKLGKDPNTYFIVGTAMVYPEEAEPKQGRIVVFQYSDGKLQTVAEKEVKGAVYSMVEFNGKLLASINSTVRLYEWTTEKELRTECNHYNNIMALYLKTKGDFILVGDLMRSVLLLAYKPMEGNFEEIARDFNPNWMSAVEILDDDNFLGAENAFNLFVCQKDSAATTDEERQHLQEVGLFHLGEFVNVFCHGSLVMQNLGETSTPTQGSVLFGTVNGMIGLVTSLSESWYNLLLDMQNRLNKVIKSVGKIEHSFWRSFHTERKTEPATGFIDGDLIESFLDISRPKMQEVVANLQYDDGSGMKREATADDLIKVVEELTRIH", "assay": "tripartite Nanoluc system (luciferase complementation)", "settings": "HepG2 cells; co-transfected with a plasmid expressing Nano1-7; luciferase activity measured 48 h post-transfection; parent: 100%"}, "[1]": {"biological_target": "C10-STAU1 with the RBD2 domain deleted (UniProt O95793)", "assay": "split reporter (BiFC, NanoBiT); tripartite Nanoluc luciferase: C10-tagged and N8-tagged proteins co-transfected with a plasmid expressing Nano1-7 into HepG2 cells; luciferase activity measured 48 h post-transfection"}, "N8-HBx": {"biological_target": "N8-HBx (UniProt P03165)", "assay": "tripartite Nanoluc system (luciferase complementation)", "settings": "HepG2 cells; co-transfected with a plasmid expressing Nano1-7; luciferase activity measured 48 h post-transfection; parent: 100%"}, "C10-DDB1M381/2": {"biological_target": "C10-DDB1M381/2", "assay": "tripartite Nanoluc system (luciferase complementation)", "settings": "HepG2 cells; co-transfected with a plasmid expressing Nano1-7; luciferase activity measured 48 h post-transfection; parent: 100%"}}, "data": [{"substance": "N8-HBx (from UniProt P03165) 96E", "values": [{"measurement": "percent of parent", "setting": "C10-DDB1", "result": 0.25, "unit": "%"}]}, {"substance": "N8-HBx (from UniProt P03165 1-154) (natural protein)", "values": [{"measurement": "fold luminescence against wild type STAU1", "setting": "[1]", "result": 2, "unit": "fold"}]}, {"substance": "C10-DDB1 (from UniProt Q16531) M381/2", "values": [{"measurement": "percent of parent", "setting": "N8-HBx", "result": 0.68, "unit": "%"}]}, {"substance": "m3; m4 HBx:96E; DDB1:M381/2", "values": [{"measurement": "percent of parent", "setting": "C10-DDB1M381/2", "result": 0.2, "unit": "%"}]}]}
